Patent US20250051400A1

Key:
human IgG2 (Panitumomab) = assay: SPR, Biacore 3000, 25 C, Langmuir 1:1 model
human IgG4 (Natalizumab) = assay: SPR, Biacore 3000, 25 C, Langmuir 1:1 model

Kd (human IgG2 (Panitumomab)): 0.129 µM
Kd (human IgG4 (Natalizumab)): 0.008 µM
Substance: Wt C-domain (wild-type Protein A domain C) (from UniProt P38507 270-327)
